From patent publication US20090238823A1 (published 2009)
Substitutions are numbered along the chain they refer to. Values belong to the binder of their own block, whether it stands above or below them.

Columns and labels:
[1] = biological target: T1, Human TSLP (mammalian produced) (human, UniProt Q969D9 29-159); test: SPR (Biacore 3000), antibody captured by anti-human Fc gamma, TSLP in solution, 25 C
T1 construct: also called Hu TSLP; huTSLPwtpHF
Procedure: (§1) The surface plasmon resonance experiments described in this patent application were conducted at 25° C. using a Biacore 3000 instrument (Biacore International AB, Uppsala, Sweden) equipped with a CM4 sensor chip. Anti-Fcγ specific capture antibodies were covalently immobilized to two flow cells on the CM4 chip using standard amine-coupling chemistry with HBS-EP as the running buffer. Briefly, each flow cell was activated with a 1:1 (v/v) mixture of 0.1 M NHS and 0.4 M EDC. AffiniPure Goat Anti-Human IgG, Fcγ Fragment Specific antibody (Jackson ImmunoResearch Inc. West Grove, Pa.) at 30 ug/ml in 10 mM sodium acetate, pH 5.0 was immobilized with a target level of 3,000 RUs on two flow cells. Residual reactive surfaces were deactivated with an injection of 1 M ethanolamine. The running buffer was then switched to HBS-EP+0.1 mg/ml BSA for all remaining steps.
(§2) The following antibodies were tested. […] No antibody was captured on the control flow cell surface. Human, cyno, or murine TSLP at various concentrations, along with buffer blanks were then flown over the two flow cells. The concentration ranges for human and cyno TSLP were from 0.44-100 nM while the concentration range for murine TSLP was from 8.2-6000 nM. A flow rate of 50 ul/min was used and a 2 minute association phase followed by a 10-30 minute dissociation phase. After each cycle the surfaces were regenerated with a 30 second injection of 10 mM glycine pH 1.5. Fresh antibody was then captured on the test flow cell to prepare for the next cycle.

[2] = biological target: T2, Cynomolgus TSLP (mammalian produced) (cynomolgus); test: as above
T2 construct: The Biacore construct is not specified beyond mammalian production; also called Cyno TSLP; cynomolgus TSLPwtpHF
T2 chain: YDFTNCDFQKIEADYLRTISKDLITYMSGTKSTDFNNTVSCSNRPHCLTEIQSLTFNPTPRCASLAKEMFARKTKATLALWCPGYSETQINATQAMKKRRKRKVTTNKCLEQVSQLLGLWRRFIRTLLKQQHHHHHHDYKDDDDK
Procedure: as §1, §2

[3] = biological target: T3, Murine TSLP (murine, UniProt Q9JIE6 20-140); test: SPR (Biacore 3000), antibody captured by anti-human Fc gamma, TSLP in solution
T3 construct: also called Mu TSLP
T3 sequence (looked up): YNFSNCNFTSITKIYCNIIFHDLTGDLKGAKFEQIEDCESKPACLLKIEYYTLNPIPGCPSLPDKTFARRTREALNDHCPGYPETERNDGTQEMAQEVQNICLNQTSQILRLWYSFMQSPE

[4] = biological target: T3, Murine TSLP; test: SPR (Biacore 3000), antibody captured by anti-human Fc gamma, TSLP in solution, 25 C
Procedure: as §1, §2

B1: A2 IgG1 (antibody, V domains shown)
VH: EVQLVESGGVVVQPGGSLRLSCAASGFTFDDFTMHWVRQAPGKGLEWVSLISWDGGSTYYADSVKGRFTISRDNSKNSLYMQMNSLRTEDSALYYCARGPYYYFYGMDVWGQGTTVTVSS
VL: SSELTQDPAVSVALGQTVRITCQGDSLRTYYASWYQQKPGQAPILVISDKNNRPSGIPDRFSGSSSGNTASLTITGAQAEDEADYYCNSRDSSDNHLVVFGGGTKLTVL
notes: also called L2H2
Kd [1]: 0.203 nM
koff [1]: 0.000349 s⁻¹
Kd [2]: 0.0468 nM
koff [2]: 0.000104 s⁻¹

B3: A3 IgG4 (antibody, V domains shown)
VH: QVQLVQSGAEVKKPGASVKVSCKASGYTFTDYYMYWVRQAPGQGPEWMGWINPNSGGTNYVQKFQGRVTMTRDTSISTAYMELSRMRSDDTAVYYCARDGGSSGWPLFAYWGLGTLVTVSS
VL: QSVLTQPPSVSGAPGQRVTISCTGSSSNIGAGFDVHWYQQLPGTAPKLLIYDNNNRPSGVPDRFSGSKSGTSASLAITGLQAEDEADYYCQSYDSNLSGSIVVFGGGTKLTVL
notes: also called L3H3
Kd [1]: 0.17 nM
koff [1]: 0.00027 s⁻¹

Now from value to binder, other results behind:

Kd [1]: 0.157 nM
koff [1]: 0.000285 s⁻¹
Kd [2]: 0.0376 nM
koff [2]: 9.42e-05 s⁻¹
B2: A2 IgG2 (antibody, V domains shown)
VH: B1 VH
VL: B1 VL
notes: also called L2H2
binding result [3]: no binding (tested: murine TSLP 8.2-6000 nM)

Kd [1]: 0.34 nM
koff [1]: 0.00033 s⁻¹
B4: A4 IgG4 (antibody, V domains shown)
VH: QVQLVQSGAEVKKPGASVKVSCKASGYIFTGDYMHWVRQAPGQGLEWMGWINPNSGGTNHARKFQGRVTMTRDTSISTAYMELSRLRSDDTAVYYCVRDRGTSGWPLFDYWGQGTLVTVSS
VL: B3 VL with Q40L, Y51F
notes: also called L4H4

Kd [2]: 0.0512 nM
Kd [4]: 377 nM
B5: A5 IgG2 (antibody, V domains shown)
VH: QMQLVESGGGVVQPGRSLRLSCAASGFTFRTYGMHWVRQAPGKGLEWVAVIWYDGSNKHYADSVKGRFTITRDNSKNTLNLQMNSLRAEDTAVYYCARAPQWELVHEAFDIWGQGTMVTVSS
VL: SYVLTQPPSVSVAPGQTARITCGGNNLGSKSVHWYQQKPGQAPVLVVYDDSDRPSWIPERFSGSNSGNTATLTISRGEAGDEADYYCQVWDSSSDHVVFGGGTKLTVL
notes: also called L5H5
